Target: the molecule itself
Test: native gel or EMSA; blue native PAGE (4-13%) of the purified protein; dimer and monomer

Row | Protein | stoichiometry N
1 | Cytochrome c6 from Synechocystis sp. PCC 6803 (natural protein, heme covalently linked to two cysteine residues via thioether bonds (CXXCH motif); iron axially coordinated by methionine and histidine, Cytochrome c6, Synechocystis sp; cloned into pET22b with an N-terminal pelB signal peptide; Crystallised only in the reduced form (3 mM beta-mercaptoethanol); The printed residue numbers and the MALDI-TOF mass (9449.297 with heme) fit the mature protein without the native signal peptide) ADLAHGKAIFAGNCAACHNGGLNAINPSKTLKMADLEANGKNSVAAIVAQITNGNGAMPGFKGRISDSDMEDVAAYVLDQAEKGW | 2
2 | Cytochrome c6 from Synechococcus elongatus sp. PCC 7942 (natural protein, Synechococcus elongatus PCC 7942, heme covalently linked to two cysteine residues via thioether bonds (CXXCH motif); iron axially coordinated by methionine and histidine, cloned into pET22b with an N-terminal pelB signal peptide; Used reduced (3 mM beta-mercaptoethanol) and oxidised (40-fold molar excess of potassium ferricyanide); The printed residue numbers (Asp2, His5, Ala16) and the MALDI-TOF mass (9714.504 with heme) fit the mature protein without the native signal peptide) ADLAHGGQVFSANCAACHLGGRNVVNPAKTLQKADLDQYGMASIEAITTQVTNGKGAMPAFGSKLSADDIADVASYVLDQSEKGWQG | 2

From publication PMC11765882, “A High-Resolution Crystallographic Study of Cytochrome c6: Structural Basis for Electron Transfer in Cyanobacterial Photosynthesis” (International Journal of Molecular Sciences, 2025)
